Molecular target: human FcγR1A (human) (UniProt P12314)
Assay: SPR (Biacore T200), antibody amine-coupled on CM5 (~950 RU), receptor as analyte, 25 C

Chain of UniProt P12314 (P12314 16-288 limits assumed): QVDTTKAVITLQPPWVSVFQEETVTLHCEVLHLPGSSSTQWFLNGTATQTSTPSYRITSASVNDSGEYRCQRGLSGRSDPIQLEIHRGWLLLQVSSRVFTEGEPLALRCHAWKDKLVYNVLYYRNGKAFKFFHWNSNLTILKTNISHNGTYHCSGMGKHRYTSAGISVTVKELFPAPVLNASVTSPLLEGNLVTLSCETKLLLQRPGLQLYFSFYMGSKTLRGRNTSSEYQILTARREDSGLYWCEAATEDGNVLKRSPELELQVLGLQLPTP

Substance | Maximum response at 100 nM hFcgammaRIA (RU)
LALAGA-IgG1 (L234A/L235A/G237A) anti-CD3 antibody | 15
LALASKPA-IgG1 (L234A/L235A/S267K/P329A) anti-CD3 antibody | 9
DAPASK-IgG1 (D265A/P329A/S267K) anti-CD3 antibody | 13

Second part, the substance after the results:

Maximum response at 100 nM hFcgammaRIA (RU) | Substance
11 | DANAPA-IgG1 (D265A/N297A/P329A) anti-CD3 antibody
16 | GADAPA-IgG1 (G237A/D265A/P329A) anti-CD3 antibody
18 | LALAPG-IgG1 (L234A/L235A/P329G) anti-CD3 antibody
10 | GADAPASK-IgG1 (G237A/D265A/P329A/S267K) anti-CD3 antibody
